{
  "source": "patent CN115490771A",
  "about": "(HEFEI TIANGANG IMMUNOLOGY PHARMACEUTICAL CO LTD, dated 2022)",
  "binders": {"B1": {"name": "双特异抗体 CD3×TIGIT extra (重组双特异抗体, 实施例1) (bispecific antibody, IgG1)", "chain 1": "EVQLLESGGGLVQPGGSLKLSCAASGFTFNTYAMNWVRQAPGKGLEWVARIRSKYNNYATYYADSVKDRFTISRDDSKNTAYLQMNNLKTEDTAVYYCVRHGNFGNSYVSWFAYWGQGTLVTVSSGGGGSGGGGSGGGGSELVVTQEPSLTVSPGGTVTLTCRSSTGAVTTSNYANWVQQKPGQAPRGLIGGTNKRAPGTPARFSGSLLGGKAALTLSGVQPEDEAEYYCALWYSNLWVFGGGTKLTVLGGGGSPKSCDKTHTCPPCPAPEAAGGPSVFLFPPKPKDTLMISRTPEVTCVVVDVSHEDPEVKFNWYVDGVEVHNAKTKPREEQYNSTYRVVSVLTVLHQDWLNGKEYKCKVSNKALPAPIEKTISKAKGQPREPQVYTLPPSREEMTKNQVSLWCLVKGFYPSDIAVEWESNGQPENNYKTTPPVLDSDGSFFLYSKLTVDKSRWQQGNVFSCSVMHEALHNHYTQKSLSLSPGK", "chain 2": "MMTGTIETTGNISAEKGGSIILQCHLSSTTAQVTQVNWEQQDQLLAICNADLGWHISPSFKDRVAPGPGLGLTLQSLTVNDTGEYFCIYHTYPDGTYTGRIFLEVLESSVAEHGARFQIPGGGGSPKSCDKTHTCPPCPAPEAAGGPSVFLFPPKPKDTLMISRTPEVTCVVVDVSHEDPEVKFNWYVDGVEVHNAKTKPREEQYNSTYRVVSVLTVLHQDWLNGKEYKCKVSNKALPAPIEKTISKAKGQPREPQVYTLPPSREEMTKNQVSLSCAVKGFYPSDIAVEWESNGQPENNYKTTPPVLDSDGSFFLVSKLTVDKSRWQQGNVFSCSVMHEALHNHYTQKSLSLSPGK", "notes": "Two-chain heterodimer joined through knob-into-hole IgG1 Fc regions; also called 双特异性抗体; 重组抗体"}},
  "key": {"[1]": {"target": "T1, CD155蛋白 on CHO-K1-CD155 cells (Homo sapiens (Human), UniProt P15151 21-417)", "T1 construct": "also called CHO-K1-CD155细胞", "T1 sequence": "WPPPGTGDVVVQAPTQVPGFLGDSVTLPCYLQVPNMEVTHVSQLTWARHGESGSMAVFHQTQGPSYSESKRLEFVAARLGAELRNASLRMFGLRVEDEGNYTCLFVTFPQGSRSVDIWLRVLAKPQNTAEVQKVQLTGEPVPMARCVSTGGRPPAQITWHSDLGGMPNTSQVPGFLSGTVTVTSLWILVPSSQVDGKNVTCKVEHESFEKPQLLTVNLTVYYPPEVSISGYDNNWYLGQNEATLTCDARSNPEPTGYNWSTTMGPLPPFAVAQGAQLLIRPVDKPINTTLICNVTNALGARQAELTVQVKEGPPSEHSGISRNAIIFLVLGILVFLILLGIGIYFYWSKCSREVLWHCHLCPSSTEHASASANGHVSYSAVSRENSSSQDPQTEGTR", "test": "flow cytometry on CHO-K1-CD155 cells, Alexa-647 anti-human Fc secondary antibody"}, "[2]": {"target": "T2, CD155 on tumour cells (NCI-H1299, NCI-H358, HepG2) (UniProt P15151 21-417, limits assumed)", "T2 construct": "whole, on cells; also called 表达CD155的肺癌NCI-H1299细胞; NCI-H358细胞", "T2 sequence (looked up)": "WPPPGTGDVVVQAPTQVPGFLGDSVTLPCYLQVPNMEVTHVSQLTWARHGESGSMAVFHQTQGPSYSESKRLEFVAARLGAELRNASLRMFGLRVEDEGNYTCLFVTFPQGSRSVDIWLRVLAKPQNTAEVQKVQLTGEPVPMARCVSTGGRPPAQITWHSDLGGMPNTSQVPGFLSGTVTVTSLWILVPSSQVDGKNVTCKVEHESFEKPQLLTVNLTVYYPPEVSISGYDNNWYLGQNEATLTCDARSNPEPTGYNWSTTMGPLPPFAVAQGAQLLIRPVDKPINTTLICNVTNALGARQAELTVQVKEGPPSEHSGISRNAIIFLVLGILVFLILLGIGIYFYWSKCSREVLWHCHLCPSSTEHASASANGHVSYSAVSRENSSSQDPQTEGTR", "test": "flow cytometry on NCI-H1299 lung cancer cells, Alexa-647 anti-human Fc secondary antibody"}},
  "data": [
    {"binder": "B1", "values": [
      {"measurement": "binding result", "setting": "[1]", "result": "binds"},
      {"measurement": "binding result", "setting": "[2]", "result": "binds"}
    ]}
  ]
}
